These results are taken from paper PMC4481223.

Assay [1] addresses fused Cp (genetically-fused dimer of the hepatitis B virus core protein assembly domain) (hepatitis B virus). Nature of the assay: SEC; pooled peaks 2-4 of the fused Cp disassembly re-run on a 26/60 Superdex-200 column calibrated with molecular weight standards, 1.0 ml/min; masses from the standard curve.
The target is the same in assay [2]. Briefly: native MS; non-covalent ESI-MS of oligomer samples isolated by SEC, button-dialysed into 100 mM ammonium acetate pH 6.8 (fused Cp samples at pH 9.5). For orientation: SEC sorts molecules by how far they enter the pores of the column.

Where “and” joins values, the source holds several entries; their conditions need not be identical. Equal values may be shown once.

A word on the stoichiometry N: it is the number of molecules, sites or subunits per partner or assembly. As for “fused Cp (genetically-fused dimer of the hepatitis B virus core protein assembly domain)”, the stoichiometry N was 2 copies and 3 copies and 5 copies in assay [1]; 2 and 3 in assay [2].
